In publication PMC5656003 one finds Km, kcat and kcat/Km data, which are given here for 2 substances.

The data set has as its system O=[N+]([O-])c1ccc(O[C@@H]2O[C@H](CO)[C@@H](O)[C@H](O)[C@H]2O)cc1. The data set can be described thus: pNP release, initial-rate kinetics. The data set is classed as biochemical, Bacteroides ovatus.

Turning to BoGH3MLG (Bacteroides ovatus), the Km (usually the concentration of substrate that gives half-maximal velocity) is 2950 ± 140 µM; the catalytic constant (kcat) (in general, the maximal rate divided by the concentration of active sites) was found to be 59.5 ± 1.46 s⁻¹; the kcat/Km – broadly, the turnover number divided by the Michaelis constant – was determined as 20200 M⁻¹ s⁻¹.
Regarding BACOVA_02738 (GH3) (Bacteroides ovatus), the Km is 2530 ± 130 µM, the kcat was determined as 0.212 ± 0.004 s⁻¹ and the kcat/Km worked out at 83.8 M⁻¹ s⁻¹.
